Reference: the supplement of paper PMC12042874
± gives the uncertainty stated by the source.

Experiment: amyloid nucleation score (Sup35N fusion, yeast selection) (log enrichment); library NNK1; higher = more nucleation; inactive = no reads after selection
In short: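 The nucleation score equals the log enrichment of output over input reads from DiMSum, centred on the mode score of non-aggregating sequences. It was computed only for sequences with 100 or more input reads. The reads came from Illumina sequencing of plasmid inserts from psi-negative yeast expressing Sup35N fused to peptides of 20 random codons, induced with 100 μM copper sulfate for 24 hours and grown 7 days at 30°C without adenine and uracil.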

Substance	amyloid nucleation score
IHLGCCMLFRRLGECRLVV	-0.409 ± 0.29
HIGIWTIPSRKEGR	inactive
LRYLGMMVRREKIEVINLNY	0.329 ± 1.4
EPTDYWRVY	inactive
VDCMGKMVLFLPTFGDGFIV	-0.123 ± 0.32
LANIYSSNVDISFFDPYCST	4.35 ± 0.085
VMFVPLQSVYSAP	-0.766 ± 2.4
AQSALLKS	-1.22 ± 1.2
LFRGFWSERSTVSMLFRSRR	-0.124 ± 0.83
LTNRSLIVRDWCTSTYPNPS	0.08 ± 0.53
QRVRNRM	0.03 ± 0.33
RLMNFE	-0.257 ± 0.43
GLFYW	1.06 ± 0.72
VFLQFVMDDSHGLNK	inactive
WSWRRVVAWLH	0.727 ± 0.34
LRSCMRGGRKYRDS	-0.903 ± 0.58
QHWNGTNNMILYYFPRPSAR	5.25 ± 0.065
LGNLM	-0.109 ± 0.95
YMGELFTE	2.45 ± 0.15
VLRHS	-0.779 ± 1
ALLIAY	-0.992 ± 0.59
GFRPEMHGV	inactive
RCEGYFSVDVRGYSMLEIPG	-0.365 ± 1.3
KCAWNQVNDSNLVAYRASC	5.13 ± 0.097
CFQLRVGMTDDALWRLMC	-0.452 ± 1.9
DLFLRYSLAGYYAMESPADS	0.331 ± 0.33

Substance	amyloid nucleation score
YNSTAIHNYENRRDLHQLYL	0.139 ± 0.33
GIMTHVGRPKVTGCGRGKCT	-0.165 ± 1.6
KPGFYT	-0.705 ± 0.92
FVSVCD	-0.049 ± 1
HVVVHDGSTQLWDARVRKWP	0.558 ± 0.64
IFSGECHVYVGSRQGWALVI	-0.22 ± 0.98
MSCPRGILGSAIWTYSIGHS	-0.232 ± 1.7
LEDNMEFDFKSRKDSNLCNG	0.611 ± 0.34
GYGNRNLALARGMLGQIL	0.215 ± 0.46
IAMSSYPLD	1.02 ± 1.1
DQVQGFISFLMLFKDFVSYG	-0.028 ± 0.33
SHLGVMLNIRYNKSPQTTAP	2.1 ± 0.41
LILRLVHKLGLCVPLSGSRG	-0.827 ± 1.7
LLSPLTRLYFRKFFSVGKAW	0.353 ± 1.2
DKVMGRTQLTTCQYATGRCR	0.406 ± 0.3
LLALCCDSLRCYR	0.282 ± 1.2
VWFPKTDTGVTS	0.428 ± 0.34
LRTLPHYNV	0.596 ± 1.2
PFGGDFTF	0.187 ± 0.24
WPWCQYTYRFLSIMCKVFL	0.288 ± 0.65
MFYKSRLYNRYRYRHRCYNT	-0.072 ± 0.27
RQTLEKF	-0.168 ± 0.28
VFLRRVINTSFGSMMV	0.976 ± 1.1
LFYSNMIVTVSRSVVRMRGA	0.659 ± 0.79
WKYVTLELIWWTTLVTAWGT	1.02 ± 0.8
RSTSF	inactive

Substance	amyloid nucleation score
FGSSVSAVNFRVV	-0.448 ± 0.4
VTFHLEARLAGLDLMGYSTS	0.835 ± 0.53
SIFVG	0.353 ± 1.2
HNMGWLFLLAVYLQMFT	-0.765 ± 1.1
HHTQE	-0.557 ± 1.6
GTWLSMLDSSV	-0.32 ± 0.79
WSINMCCMRSRLWNFDGRKE	4.04 ± 0.074
YWCLRSLMV	inactive
TTCSLVSSAAWMY	-0.223 ± 0.39
DAFIV	-0.684 ± 0.54
NTCEGGKCSYKVVSFLYLKY	0.497 ± 0.5
FHGSGESVNTDTMLTLYISV	-0.157 ± 0.54
FGLTCRLHKAVFRFYNKRTS	inactive
YDDTTMYRFWLHFKM	0.638 ± 0.3
HESNMSMYYERYMLLSRNGS	0.269 ± 0.23
VSEIN	2.23 ± 0.57
VLGGCYNFLLCF	7.713 ± 0.059
TSMPDLGWAVSVAAQFYNFQ	5.5 ± 0.077
PRSDNSFSVQVEFVDICEVK	-0.437 ± 0.56
VYASLTL	-1.26 ± 1.7
ILYNA	-0.166 ± 1.2
GVVGYGIWHSLGVRLIQNLC	0.389 ± 0.93
MKLNGFVWPG	-0.256 ± 0.55
QYHLWFMCAAVDRMKNGPFG	0.049 ± 0.36
IGYLDYLCCGISLFFQETEA	0.427 ± 0.48
IHLNQ	1.15 ± 0.55

Substance	amyloid nucleation score
IMDSSMGGSSKMYKVVANDL	0.311 ± 0.64
NVIWVASYF	-0.914 ± 0.44
VSGRVGKNAGITGM	0.813 ± 1.1
WGYRHSYSVGPRW	inactive
FMLVMFYWIYFNYSNVFRD	-0.669 ± 0.78
SHSGFTCTCWCMALLYGVAS	1.22 ± 0.63
PVRQSL	0.343 ± 0.33
NPLHGARFLIGNVFIIRNFK	5.52 ± 0.073
NGTGLFNNLWVGSLRLRVTR	0.192 ± 0.56
SSSHPSLIGNLDTRLNWMTM	1.52 ± 0.32
TYDALRGYNYHLWSNQFTFY	4.84 ± 0.066
GCYSQNICCVTCIKRRSIVS	-1.02 ± 0.69
RDTNVWFHT	-0.267 ± 1.1
LANLAVHLLGQGETCIQMFL	1.76 ± 0.4
YGRVTDYCKCCVILRLSYWV	-0.993 ± 0.77
SMIGCYMTF	0.073 ± 0.36
VSWENPSINLRRADLPCPLF	0.521 ± 0.57
SGTFLTFPYFIFCNVMICMS	6.969 ± 0.049
NCYSRDRSWGLDVVRYVVWW	-0.329 ± 1.6
QKGLDVVWYDTRSDMYNKIL	-0.569 ± 0.7
FATAGKFVY	-1.23 ± 1.2
IFTVSRGPVTLCWDWWETHA	0.196 ± 0.56
VIFYSLYSSVWFDSIYEGLT	-0.566 ± 1.5
NSTSCCVMGVSVRFMSFF	7.498 ± 0.069
SRVNCYSSHSFSKYGRVGKS	-0.004 ± 0.59
EIDNLHWVLVVNYPTSQFKR	-0.02 ± 0.39

Substance	amyloid nucleation score
NPWIT	1.65 ± 0.35
GTVVG	0.041 ± 0.54
DIKYECIS	0.204 ± 0.34
ARAFPNMPPVLILILHLRLY	0.961 ± 0.35
VNEREPYNCCFMRFDTCTSP	1.31 ± 0.63
NRYGWHSPDVPLAHIS	-0.029 ± 0.87
KAMLNNKWHLCSHVRTDHAV	0.172 ± 0.32
FGHGV	-0.626 ± 1.6
GVCRDAVGGVTYDK	-0.363 ± 1.5
RCSFSGNYIIILLAVRTYFE	1.1 ± 0.47
LYYYEQH	-0.388 ± 0.54
FCSSSLFHKVTLG	-0.043 ± 0.77
LPAGSDVCLY	3.23 ± 0.13
MELTIAKSEMHVFKGGCVQL	-0.45 ± 0.57
WHKLRPFEGAIKMFSAWISL	inactive
KVLLIRWDLLC	0.291 ± 0.46
TACPNSGNFERYGHYRSSSA	1.12 ± 0.58
FTGDVPEDTLRLSSFENMRR	0.384 ± 0.53
GLWMWEEVILISTLKLFVLV	0.139 ± 0.6
SCWVDSDHLNCFIYFTFVNT	-1.27 ± 2.7
RITAVRGVCLFSADSV	-0.175 ± 0.26
YRNGCTFGWWRWRR	1.08 ± 0.28
PYIRVRLFMVVY	0.659 ± 0.56
CWRFRPFRPASIKFTQYNNH	4.49 ± 0.072
SNFMGQD	0.733 ± 0.7
IALRL	0.91 ± 0.4

Substance	amyloid nucleation score
NFFCDSISY	-0.908 ± 1.1
FTISSKLRYIGTGVINGPVD	-0.397 ± 0.56
AEYCSNVGMSLYFLWSKPMQ	1.89 ± 0.18
CYSWHGVYRGYVYSSYNNYV	0.77 ± 0.52
YSNIRFSMNIYRTLRDRLGA	5.12 ± 0.095
LCSLVFTIRRTPPWVQSMLR	0.096 ± 0.8
STVRSAPFSWLPGKYGWSKC	-0.214 ± 0.98
RLDSPDVVSAFCEAALASAS	0.136 ± 0.76
YDASGLWMCKERAEGFMRNV	-0.273 ± 0.95
QGTRGRCGFSRDEVECVVRR	-0.673 ± 1
SARYTLKPQPWVHHLLK	0.523 ± 0.9
VFNVGYLV	-1.21 ± 0.55
PHYRTSFVKHPLL	0.73 ± 0.54
IKLNTEALESYLLVFRMKRW	-0.605 ± 0.46
ILDMMAKV	1.56 ± 0.76
YPQMLVSVLRFMYY	0.009 ± 0.26
LLVVRLNVCRRHMDFKYG	-0.419 ± 0.39
RVWYCRGMCRP	-0.239 ± 0.93
KVISFYS	3.21 ± 0.083
VFMIVCK	inactive
HVNLLNRTLCK	0.151 ± 0.9
LVPCSWFYLDRSAQDSDCFS	-0.754 ± 1.1
DSTDSVESEWNTVRSYVSLW	inactive
LSPLNVKIDSSFVFYIIRLK	-0.178 ± 0.36
RRRSLLLVWRMTVGWVWGWD	-0.215 ± 0.62
GYCTPNDPVIFWDFRVMTGS	-0.544 ± 0.3

Substance	amyloid nucleation score
RMFVGWHSLERIL	1.21 ± 0.43
FSFYMLRFFSKTSYYSLMSF	-0.721 ± 0.27
ARHKSENWNYAVDLLSLILS	1.59 ± 0.41
QVYEDGRAICHLTLGRDCNL	2.22 ± 0.47
ISINHVTCRLVFETGKWRWG	3.45 ± 0.086
VHRFQ	0.108 ± 0.61
SELEYPTMGVSVVRLCSSSG	0.1 ± 0.48
ISDFAYWQILCRVSDIFKVQ	2.31 ± 0.13
TFLIFDLN	4.56 ± 0.062
GNANVKCGVRAISDNRARRI	0.003 ± 0.43
RLAVKDNVCKLDMMSGCCLS	5.45 ± 0.059
LKIKGGWVFVTSIW	-0.008 ± 0.35
GFKRRYCDNISAIHPDSGCK	inactive
DNYGCYCL	0.802 ± 0.72
VGYNNWTLVWGQGAMRVYSG	0.033 ± 0.34
YDRNCFGAPFNSVVQVTGKS	-0.94 ± 1
SITMGQS	-0.546 ± 0.46
MDSTHSIPCHLNVFL	-0.475 ± 0.58
KKPCVTGYRKNRWEELEP	-0.393 ± 0.42
VLGMWIWQYRYGDDYFLLFV	2.7 ± 0.17
LFQCASWM	-0.024 ± 0.29
NVSSIFITQY	inactive
